Assay results reported in patent US20150024955.

B1: myosin phosphatase (complex of PP1β and MYPT1) (protein)
chain 1: ADGELNVDSLITRLLEVRGCRPGKIVQMTEAEVRGLCIKSREIFLSQPILLELEAPLKICGDIHGQYTDLLRLFEYGGFPPEANYLFLGDYVDRGKQSLETICLLLAYKIKYPENFFLLRGNHECASINRIYGFYDECKRRFNIKLWKTFTDCFNCLPIAAIVDEKIFCCHGGLSPDLQSMEQIRRIMRPTDVPDTGLLCDLLWSDPDKDVQGWGENDRGVSFTFGADVVSKFLNRHDLDLICRAHQVVEDGYEFFAKRQLVTLFSAPNYCGEFDNAGGMMSVDETLMCSFQILKPSEKKAKYQYGGLNSGRPVTPPRTANPPKKR
chain 2: MKMADAKQKRNEQLKRWIGSETDLEPPVVKRQKTKVKFDDGAVFLAACSSGDTDEVLKLLHRGADINYANVDGLTALHQACIDDNVDMVKFLVENGANINQPDNEGWIPLHAAASCGYLDIAEFLIGQGAHVGAVNSEGDTPLDIAEEEAMEELLQNEVNRQGVDIEAARKEEERVMLRDARQWLNSGHISDVRHAKSGGTALHVAAAKGYTEVLKLLIQAGYDVNIKDYDGWTPLHAAAHWGKEEACRILVDNLCDMETVNKVGQTAFDVADEDILGYLEELQKKQTLLHSEKRDKKSPLIESTANMENNQPQKAFKNKETLIIEPEKNASRIESLEHEKADEEEEGKKDESSCSSEEDEEDDSESEAETDKTKPMASVSNAHTSSTQAAPAAVTAPTLSSNQGTPTSPVKKFPISTTKISPKEEERKDESPASWRLGLRKTGSYGALAEISASKEAQKEKDTAGVMRSASSPRLSSSLDNKEKEKDNKGTRLAYVTPTIPRRLASTSDIEEKENRESSSLRTSSSYTRRKWEDDLKKNSSINEGSTYHRSCSFGRRQDDLISCSVPSTTSTPTVTSAAGLQRSLPSSTSTAAKTPPGSSSAGTQSSTSNRLWAEDSTEKEKDSAPTAVTIPVAPTVVNAAAPSTTTLTTTTAGTVSEVRERRRSYLTPVRDEESESQRKARSRQARQSRRSTQGVTLTDLQEAEKTIGRSRSTRTREQENEEKEKEEKEKQDKEKQEEKKESEASREDEYKQKYSRTYDETYTRYRPVSTSSSSAPSSSSLSTLGSTLYASSQLNRPNSLVGITSAYSRGLAKENEREGEKKEEEKEGEDKSQPKSIRERRRPREKRRSTGVSFWTQDSDENEQERQSDTEDGSSKRETQTDSVSRYDSSSTSSSDRYDSLLGRSASYSYLEDRKPYSSRLEKDDSTDFKKLYEQILAENEKLKAQLHDTNMELTDLKLQLEKATQRQERFADRSQLEMEKRERRALERRISEMEEELKMLPDLKADNQRLKDENGALIRVISKLSK
B2: FLAG-tagged human HDAC7, phosphorylated (from DO11.10-HDAC7-Flag cells treated with PMA or anti-CD3) (protein)
chain: MDLRVGQRPPVEPPPEPTLLALQRPQRLHHHLFLAGLQQQRSVEPMRLSMDTPMPELQVGPQEQELRQLLHKDKSKRSAVASSVVKQKLAEVILKKQQAALERTVHPNSPGIPYRTLEPLETEGATRSMLSSFLPPVPSLPSDPPEHFPLRKTVSEPNLKLRYKPKKSLERRKNPLLRKESAPPSLRRRPAETLGDSSPSSSSTPASGCSSPNDSEHGPNPILGSEADSDRRTHPTLGPRGPILGSPHTPLFLPHGLEPEAGGTLPSRLQPILLLDPSGSHAPLLTVPGLGPLPFHFAQSLMTTERLSGSGLHWPLSRTRSEPLPPSATAPPPPGPMQPRLEQLKTHVQVIKRSAKPSEKPRLRQIPSAEDLETDGGGPGQVVDDGLEHRELGHGQPEARGPAPLQQHPQVLLWEQQRLAGRLPRGSTGDTVLLPLAQGGHRPLSRAQSSPAAPASLSAPEPASQARVLSSSETPARTLPFTTGLIYDSVMLKHQCSCGDNSRHPEHAGRIQSIWSRLQERGLRSQCECLRGRKASLEELQSVHSERHVLLYGTNPLSRLKLDNGKLAGLLAQRMFVMLPCGGVGVDTDTIWNELHSSNAARWAAGSVTDLAFKVASRELKNGFAVVRPPGHHADHSTAMGFCFFNSVAIACRQLQQQSKASKILIVDWDVHHGNGTQQTFYQDPSVLYISLHRHDDGNFFPGSGAVDEVGAGSGEGFNVNVAWAGGLDPPMGDPEYLAAFRIVVMPIAREFSPDLVLVSAGFDAAEGHPAPLGGYHVSAKCFGYMTQQLMNLAGGAVVLALEGGHDLTAICDASEACVAALLGNRVDPLSEEGWKQKPNLNAIRSLEAVIRVHSKYWGCMQRLASCPDSWVPRVPGADKEEVEAVTALASLSVGILAEDRPSEQLVEEEEPMNL

Assays:
[1] = biological target: mixture of recombinant PP1 isoforms (α, β, and γ; Upstate)

Chain of HDAC7-GFP fusion protein (Q8C2B3 whole entry, the tested form may be a part): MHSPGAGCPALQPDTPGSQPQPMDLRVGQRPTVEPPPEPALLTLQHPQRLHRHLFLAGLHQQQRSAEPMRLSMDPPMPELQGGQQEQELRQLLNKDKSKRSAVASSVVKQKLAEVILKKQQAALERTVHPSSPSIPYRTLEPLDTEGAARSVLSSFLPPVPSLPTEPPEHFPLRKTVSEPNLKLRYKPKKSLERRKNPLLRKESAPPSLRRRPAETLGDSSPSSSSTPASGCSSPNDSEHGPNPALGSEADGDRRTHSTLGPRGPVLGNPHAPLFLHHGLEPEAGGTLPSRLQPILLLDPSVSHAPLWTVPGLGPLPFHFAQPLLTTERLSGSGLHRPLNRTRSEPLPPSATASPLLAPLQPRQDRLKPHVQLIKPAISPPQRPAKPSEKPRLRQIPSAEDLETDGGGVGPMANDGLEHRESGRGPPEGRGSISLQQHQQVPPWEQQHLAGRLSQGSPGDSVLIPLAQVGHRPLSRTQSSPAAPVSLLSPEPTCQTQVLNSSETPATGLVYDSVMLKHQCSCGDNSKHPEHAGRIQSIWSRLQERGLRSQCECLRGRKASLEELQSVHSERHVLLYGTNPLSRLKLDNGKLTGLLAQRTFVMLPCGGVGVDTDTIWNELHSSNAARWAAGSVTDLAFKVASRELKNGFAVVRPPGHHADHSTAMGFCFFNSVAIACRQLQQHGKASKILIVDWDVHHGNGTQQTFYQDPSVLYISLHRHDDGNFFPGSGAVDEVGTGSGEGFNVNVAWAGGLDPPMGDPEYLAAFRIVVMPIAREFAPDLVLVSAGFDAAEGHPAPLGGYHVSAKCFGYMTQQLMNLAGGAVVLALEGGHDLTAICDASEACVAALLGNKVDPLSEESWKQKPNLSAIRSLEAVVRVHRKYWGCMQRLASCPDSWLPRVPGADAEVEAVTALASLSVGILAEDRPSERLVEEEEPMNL

Row | Protein | nuclear exclusion of HDAC7-GFP after siRNA knockdown of myosin phosphatase subunits (immunofluorescence microscopy) (HDAC7-GFP fusion protein) | in vitro dephosphorylation assay (30 minutes at 30° C.), Western blot with phospho HDAC7 antibodies [1]
1 | B1 | HDAC7 nuclear re-entry was significantly delayed at later time points | 
2 | B2 |  | recombinant PP1 treatment totally abolished the reactivity to the different phospho HDAC7 antibodies
